One block for each molecule: values may come before it.
What was measured:
CD14 (Homo sapiens) = CD14 (Homo sapiens) (UniProt P08571); conditions: cited from earlier work
[1] = target: Apolipoprotein B (Homo sapiens) (UniProt P04114); conditions: cited from earlier work
[2] = target: T1, CD1d-β2m complex (glycosylated CD1d-H6 with untagged β2m) (human, UniProt P15813 20-301; P61769 21-119, glycosylated (N-linked glycans from expression in HEK293F)); experiment: equilibrium binding assay (depletion of prey from the supernatant, no wash steps); CD1d-β2m on Ni-NTA agarose beads at 0-40 μM, SapB at 680 nM; 50 mM HEPES pH 7.0, 150 mM NaCl, 0.05% digitonin, 2.5 mM CaCl2, 2.5 mM MgCl2; 1 hour at room temperature; unbound SapB detected by SYPRO Ruby; both proteins with the endogenous lipids they co-purify with; conditions: both partners purified
T1 construct: CD1d, human, extracellular domain, residues 20-301 of UniProt P15813; expressed behind the vector's N-terminal secretion signal; β-2-microglobulin, human, residues 21-119 of UniProt P61769; untagged; Carries endogenous human lipids as purified; The results call β2m full-length, the methods give residues 21-119; also called CD1d-H 6-β 2m; gCD1d; not shown: His6, C-terminal, kept

Sequence of CD14 (Homo sapiens) (P08571 20-345): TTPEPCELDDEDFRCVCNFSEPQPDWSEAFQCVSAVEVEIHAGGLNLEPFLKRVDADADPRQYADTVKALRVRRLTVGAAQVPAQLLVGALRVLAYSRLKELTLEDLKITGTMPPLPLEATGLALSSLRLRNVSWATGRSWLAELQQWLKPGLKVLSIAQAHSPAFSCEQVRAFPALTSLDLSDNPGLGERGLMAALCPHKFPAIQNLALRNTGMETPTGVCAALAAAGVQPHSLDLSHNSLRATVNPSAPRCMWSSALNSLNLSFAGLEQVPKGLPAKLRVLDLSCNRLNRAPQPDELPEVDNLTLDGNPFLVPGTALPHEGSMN
Sequence of Apolipoprotein B (Homo sapiens) (P04114 28-2179): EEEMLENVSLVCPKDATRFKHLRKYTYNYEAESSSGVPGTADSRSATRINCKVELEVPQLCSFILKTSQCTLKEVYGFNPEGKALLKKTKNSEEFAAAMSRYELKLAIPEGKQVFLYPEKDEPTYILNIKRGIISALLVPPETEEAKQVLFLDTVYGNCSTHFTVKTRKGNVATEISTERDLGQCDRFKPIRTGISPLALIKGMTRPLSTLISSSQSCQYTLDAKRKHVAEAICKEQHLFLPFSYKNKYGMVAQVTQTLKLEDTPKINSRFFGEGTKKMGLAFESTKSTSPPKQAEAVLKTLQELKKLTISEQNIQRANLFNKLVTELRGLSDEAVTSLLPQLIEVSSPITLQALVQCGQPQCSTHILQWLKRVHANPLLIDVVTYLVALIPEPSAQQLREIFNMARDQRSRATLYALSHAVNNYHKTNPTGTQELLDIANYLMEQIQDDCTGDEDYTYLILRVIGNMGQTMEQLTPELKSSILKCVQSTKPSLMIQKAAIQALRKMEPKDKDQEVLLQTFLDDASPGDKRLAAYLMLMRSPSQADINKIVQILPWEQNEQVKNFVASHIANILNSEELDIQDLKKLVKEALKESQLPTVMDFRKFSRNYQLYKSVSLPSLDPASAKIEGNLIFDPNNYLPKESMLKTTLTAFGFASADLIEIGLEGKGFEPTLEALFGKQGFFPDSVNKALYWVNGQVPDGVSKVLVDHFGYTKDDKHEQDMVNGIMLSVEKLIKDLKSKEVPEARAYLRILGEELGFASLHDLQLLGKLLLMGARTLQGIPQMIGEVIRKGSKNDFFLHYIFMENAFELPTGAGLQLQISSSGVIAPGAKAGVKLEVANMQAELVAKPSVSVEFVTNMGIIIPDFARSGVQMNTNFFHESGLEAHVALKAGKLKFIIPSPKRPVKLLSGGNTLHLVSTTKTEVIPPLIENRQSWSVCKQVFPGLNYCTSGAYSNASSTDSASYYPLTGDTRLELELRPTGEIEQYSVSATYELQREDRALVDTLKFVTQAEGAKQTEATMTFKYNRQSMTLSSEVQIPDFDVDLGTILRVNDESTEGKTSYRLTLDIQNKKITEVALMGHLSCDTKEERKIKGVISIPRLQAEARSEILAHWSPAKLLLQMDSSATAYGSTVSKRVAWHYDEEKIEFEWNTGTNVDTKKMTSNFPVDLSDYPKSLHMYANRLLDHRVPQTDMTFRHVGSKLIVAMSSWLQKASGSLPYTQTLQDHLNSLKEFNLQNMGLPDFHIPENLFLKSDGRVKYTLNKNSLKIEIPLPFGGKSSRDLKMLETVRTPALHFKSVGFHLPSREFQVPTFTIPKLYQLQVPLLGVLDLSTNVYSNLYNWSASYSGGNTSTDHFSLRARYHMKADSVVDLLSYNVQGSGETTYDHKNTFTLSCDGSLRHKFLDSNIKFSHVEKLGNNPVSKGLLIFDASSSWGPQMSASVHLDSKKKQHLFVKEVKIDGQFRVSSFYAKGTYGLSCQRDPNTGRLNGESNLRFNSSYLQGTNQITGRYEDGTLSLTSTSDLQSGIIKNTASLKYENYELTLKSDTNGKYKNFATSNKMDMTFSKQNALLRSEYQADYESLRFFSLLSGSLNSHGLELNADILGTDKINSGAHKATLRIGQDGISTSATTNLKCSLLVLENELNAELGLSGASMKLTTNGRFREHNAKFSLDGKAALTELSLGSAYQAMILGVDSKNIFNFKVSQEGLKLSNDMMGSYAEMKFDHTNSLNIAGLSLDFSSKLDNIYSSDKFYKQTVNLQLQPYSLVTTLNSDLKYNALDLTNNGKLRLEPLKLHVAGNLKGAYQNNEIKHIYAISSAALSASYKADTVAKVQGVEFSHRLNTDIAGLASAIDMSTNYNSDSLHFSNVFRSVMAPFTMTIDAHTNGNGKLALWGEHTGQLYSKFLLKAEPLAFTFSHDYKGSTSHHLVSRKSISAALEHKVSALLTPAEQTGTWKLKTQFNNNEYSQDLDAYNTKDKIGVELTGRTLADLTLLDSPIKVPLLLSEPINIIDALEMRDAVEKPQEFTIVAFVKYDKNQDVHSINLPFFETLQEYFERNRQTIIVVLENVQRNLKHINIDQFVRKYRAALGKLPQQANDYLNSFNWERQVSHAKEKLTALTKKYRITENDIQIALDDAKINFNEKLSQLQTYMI

Molecule: LPS binding protein (LBP) (from UniProt P18428)
Kd (CD14 (Homo sapiens)): 5.52 nM

Molecule: Microsomal Triglyceride Transfer protein (from UniProt P55157)
Kd [1]: 20 nM

Kd [2]: > 40000 nM
B1: Saposin B, untagged, expressed in E. coli (unglycosylated) (natural protein, human, UniProt P07602 195-274, looked up)
chain: GDVCQDCIQMVTDIQTAVRTNSTFVQALVEHVKEECDRLGPGMADICKNYISQYSEIAIQMMMHMQPKEICALVGFCDEV
notes: Saposin B, the segment of human prosaposin (PSAP) residues 195-274, UniProt P07602; Cloned into pET-15b by NcoI and XhoI to give untagged protein; Co-purifies with E. coli lipid; also called SapB; ugSapB; source: E. coli Origami (DE3), purified (heat treatment, anion exchange, SEC)

— paper PMC6807164, “The lipid transfer protein Saposin B does not directly bind CD1d for lipid antigen loading” (Wellcome Open Research, 2019)
